Tests used:
[1] = biological target: hPD-1 protein (ELISA coat) (human) (UniProt Q15116); experiment: ELISA against hPD-1 ECD-Fc protein (plate coat)
[2] = biological target: human PD-1 on cells (human) (UniProt Q15116); experiment: cell based RBA (flow cytometry): blocking of Biotin-hPD-L1 binding to CHOK1-hPD-1 cells
[3] = biological target: cynomolgus monkey PD-1 on cells (cynomolgus monkey) (UniProt B0LAJ3); experiment: flow cytometry on CHOK1-cPD-1 cells
[4] = biological target: human PD-1 on cells (human) (UniProt Q15116)
[5] = biological target: human PD-1 on cells (human) (UniProt Q15116); experiment: flow cytometry on CHOK1-hPD-1 cells
[6] = biological target: human PD-1 on cells (human) (UniProt Q15116); experiment: cell based RBA (flow cytometry): blocking of Biotin-hPD-L2 binding to CHOK1-hPD-1 cells
[7] = biological target: mPD-1 protein (ELISA coat) (mouse) (UniProt Q02242); experiment: ELISA against mPD-1 ECD-Fc protein (plate coat)
Chain of mPD-1 protein (ELISA coat) (mouse) (Q02242 25-167 limits assumed): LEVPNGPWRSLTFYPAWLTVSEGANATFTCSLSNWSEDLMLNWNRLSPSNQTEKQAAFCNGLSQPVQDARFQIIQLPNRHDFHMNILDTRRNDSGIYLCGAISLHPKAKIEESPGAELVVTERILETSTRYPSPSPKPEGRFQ

Chain of human PD-1 on cells (human) (Q15116 25-288): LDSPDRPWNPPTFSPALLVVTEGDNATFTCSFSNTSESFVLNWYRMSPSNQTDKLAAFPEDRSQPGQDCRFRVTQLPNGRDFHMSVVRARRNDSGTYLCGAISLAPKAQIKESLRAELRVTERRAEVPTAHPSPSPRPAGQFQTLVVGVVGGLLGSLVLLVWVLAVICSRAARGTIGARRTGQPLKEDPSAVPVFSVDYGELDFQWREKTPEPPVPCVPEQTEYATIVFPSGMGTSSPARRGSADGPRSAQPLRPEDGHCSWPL
Chain of hPD-1 protein (ELISA coat) (human) (Q15116 25-167 limits assumed): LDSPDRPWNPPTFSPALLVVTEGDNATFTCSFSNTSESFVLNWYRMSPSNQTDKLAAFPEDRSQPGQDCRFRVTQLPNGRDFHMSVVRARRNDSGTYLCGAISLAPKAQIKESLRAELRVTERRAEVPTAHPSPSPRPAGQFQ
Chain of cynomolgus monkey PD-1 on cells (cynomolgus monkey) (B0LAJ3 entry or part of it limits assumed): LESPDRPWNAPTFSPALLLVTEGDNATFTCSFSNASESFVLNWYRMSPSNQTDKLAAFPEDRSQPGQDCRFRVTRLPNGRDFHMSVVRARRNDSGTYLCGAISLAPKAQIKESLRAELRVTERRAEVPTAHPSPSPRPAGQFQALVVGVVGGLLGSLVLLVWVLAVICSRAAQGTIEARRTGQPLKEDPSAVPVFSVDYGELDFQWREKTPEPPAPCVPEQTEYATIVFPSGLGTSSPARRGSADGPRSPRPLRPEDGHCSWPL

Substance: control human IgG4 (antibody)
- Max OD450 [1]: 0.67
- Inhibition rate [2]: 4.9%
- Max MFI [3]: 86
- EC50 printed for the negative control; its RLU curve is flat at about 270000 and falls to about 225000 at the highest concentration, no activation [4]: 12.4 µg/mL
- Max MFI [5]: 107
- Inhibition rate [6]: -5.5%
- Max OD450 [7]: 0.92

Source: patent US20210261665A1
